Consider 25 variants from FireProtDB (doi:10.1038/9384).

Sequences and labels used below:
B1: Acyl-CoA-binding protein, P07107 (parent)
chain: MSQAEFDKAAEEVKHLKTKPADEEMLFIYSHYKQATVGDINTERPGMLDFKGKAKWDAWNELKGTSKEDAMKAYIDKVEELKKKYGI

This series covers variants of B1. The conditions noted are these: Bos taurus; pH 5.3; 5 °C; GdnHCl; Fluorescence; Sodium acetate 0.02 M; structure 2ABD; whole UniProt chain shown.

For the variant MSQAEFDKAAEEVKHLKTKPADEEMLFIYSHYKQAAVGDINTERPGMLDFKGKAKWDAWNELKGTSKEDAMKAYIDKVEELKKKYGI [T36A], the “ddG of mutation (higher = less stable)” value turned out to be 1.28 kcal/mol, the denaturant m value was found to be 3.93 kcal/mol/M and the unfolding free energy is 6.8 kcal/mol.

Regarding MSQAEFDKAAEEVKHLKTKPAAEEMLFIYSHYKQATVGDINTERPGMLDFKGKAKWDAWNELKGTSKEDAMKAYIDKVEELKKKYGI [D22A], the “ddG of mutation (higher = less stable)” value was 0.4 kcal/mol, the denaturant m value stood at 3.32 kcal/mol/M and the unfolding free energy is 7.68 kcal/mol.

With MSQAEFDKAGEEVKHLKTKPADEEMLFIYSHYKQATVGDINTERPGMLDFKGKAKWDAWNELKGTSKEDAMKAYIDKVEELKKKYGI [A10G], the “ddG of mutation (higher = less stable)” value is 2 kcal/mol, the denaturant m value is 3.4 kcal/mol/M and the unfolding free energy was determined as 6.08 kcal/mol.

As to MSQAEFDKAAEEVKHLKTKPADEEMLFIYSHYAQATVGDINTERPGMLDFKGKAKWDAWNELKGTSKEDAMKAYIDKVEELKKKYGI [K33A], the “ddG of mutation (higher = less stable)” value was found to be 1.61 kcal/mol, the denaturant m value is 3.39 kcal/mol/M and the unfolding free energy turned out to be 6.47 kcal/mol.

As for MSQAEFDKAAEEVKHLKTKPADEEMLFIYSHYEQATVGDINTERPGMLDFKGKAKWDAWNELKGTSKEDAMKAYIDKVEELKKKYGI [K33E], the “ddG of mutation (higher = less stable)” value is 1.47 kcal/mol, the denaturant m value came out at 3.42 kcal/mol/M and the unfolding free energy amounted to 6.61 kcal/mol.

Regarding MSQAEFDKAAEEVKHLKTKPADEEMLFIYSHYKQATVGDINTERPGMLDFKGKAKWDAWNELKGTSKEDAMKAYADKVEELKKKYGI [I75A], the “ddG of mutation (higher = less stable)” value is 1.34 kcal/mol, the denaturant m value is 3.91 kcal/mol/M and the unfolding free energy stood at 6.74 kcal/mol.

For MSQAEFDKAAEEVKHLKTKPADEEMLFIYSHYKAATVGDINTERPGMLDFKGKAKWDAWNELKGTSKEDAMKAYIDKVEELKKKYGI [Q34A], the “ddG of mutation (higher = less stable)” value was 3.03 kcal/mol, the denaturant m value was 4.49 kcal/mol/M and the unfolding free energy was 5.05 kcal/mol.

Regarding MSQAEFDKAAEEVKHLKTKPADEEMAFIYSHYKQATVGDINTERPGMLDFKGKAKWDAWNELKGTSKEDAMKAYIDKVEELKKKYGI [L26A], the “ddG of mutation (higher = less stable)” value is 2.02 kcal/mol, the denaturant m value was found to be 3.36 kcal/mol/M and the unfolding free energy amounted to 6.06 kcal/mol.

In the case of MSQAEFDKAAEEVKHAKTKPADEEMLFIYSHYKQATVGDINTERPGMLDFKGKAKWDAWNELKGTSKEDAMKAYIDKVEELKKKYGI [L16A], the “ddG of mutation (higher = less stable)” value was determined as 3.57 kcal/mol, the denaturant m value was 3.19 kcal/mol/M and the unfolding free energy was 4.51 kcal/mol.

Regarding MSQAEFDKAAEEVKHLKTKPADEEMLFIFSHYKQATVGDINTERPGMLDFKGKAKWDAWNELKGTSKEDAMKAYIDKVEELKKKYGI [Y29F], the “ddG of mutation (higher = less stable)” value turned out to be 1.26 kcal/mol, the denaturant m value was 3.56 kcal/mol/M and the unfolding free energy worked out at 6.82 kcal/mol.

Regarding MSQAEFDKAAEEVKHLKTKPADEEMLFINSHYKQATVGDINTERPGMLDFKGKAKWDAWNELKGTSKEDAMKAYIDKVEELKKKYGI [Y29N], the “ddG of mutation (higher = less stable)” value amounted to 2.47 kcal/mol, the denaturant m value was found to be 3.65 kcal/mol/M and the unfolding free energy came to 5.61 kcal/mol.

MSQAEFDKAAEEVKHLKTKPADEEMLFIASHYKQATVGDINTERPGMLDFKGKAKWDAWNELKGTSKEDAMKAYIDKVEELKKKYGI [Y29A]: the “ddG of mutation (higher = less stable)” value was 2.52 kcal/mol, the denaturant m value amounted to 3.97 kcal/mol/M and the unfolding free energy stood at 5.56 kcal/mol.

Consider MSQAEFDKAAEEVKHLKTKPADEEMLFIYSHNKQATVGDINTERPGMLDFKGKAKWDAWNELKGTSKEDAMKAYIDKVEELKKKYGI [Y32N], for which the “ddG of mutation (higher = less stable)” value was determined as 0.97 kcal/mol, the denaturant m value came out at 4.95 kcal/mol/M and the unfolding free energy turned out to be 7.11 kcal/mol.

Consider MSQAEFDKAAEEVKHLKTKAADEEMLFIYSHYKQATVGDINTERPGMLDFKGKAKWDAWNELKGTSKEDAMKAYIDKVEELKKKYGI [P20A], for which the “ddG of mutation (higher = less stable)” value was determined as 0.91 kcal/mol, the denaturant m value stood at 3.3 kcal/mol/M and the unfolding free energy amounted to 7.17 kcal/mol.

For MSQAEFDKAAEEVKHLKTKPADEEMLFIYSHYKQATVGDINTERPGMLDFKGKAKWDAWNELKGTSKEDAMKAYIDKVEEAKKKYGI [L81A], the “ddG of mutation (higher = less stable)” value is 4.57 kcal/mol, the denaturant m value was found to be 3.08 kcal/mol/M and the unfolding free energy was found to be 3.51 kcal/mol.

MSQAEFDKAAEEVKHLKTKPADEEMLFIYSHYKQATVGDINTERPGMLDFKGKAKWDAWNELKGTSKEDAMKAYIDKAEELKKKYGI [V78A]: the “ddG of mutation (higher = less stable)” value stood at 1.54 kcal/mol, the denaturant m value was 3.78 kcal/mol/M and the unfolding free energy amounted to 6.54 kcal/mol.

For the variant MSQAEFDKAAEEVKHLKTKPADEEMLFIYSHYKQATVGDANTERPGMLDFKGKAKWDAWNELKGTSKEDAMKAYIDKVEELKKKYGI [I40A], the “ddG of mutation (higher = less stable)” value was determined as 1.06 kcal/mol, the denaturant m value came to 3.51 kcal/mol/M and the unfolding free energy was 7.02 kcal/mol.

In the case of MSQAEFDKAAEEVKHLKTKPADEEMLFIYSHYKQATVGDINTERPGMLDFKGMAKWDAWNELKGTSKEDAMKAYIDKVEELKKKYGI [K53M], the “ddG of mutation (higher = less stable)” value was -0.48 kcal/mol, the denaturant m value was 3.71 kcal/mol/M and the unfolding free energy is 8.56 kcal/mol.

On to MSQAEFDKAAEEVKHLKTKPADEEMLFIYSHYKQATVGDINTERPGMLDFKGKAKWDAWNELKGTSKADAMKAYIDKVEELKKKYGI [E68A], for which the “ddG of mutation (higher = less stable)” value was 0.8 kcal/mol, the denaturant m value came to 3.45 kcal/mol/M and the unfolding free energy was determined as 7.28 kcal/mol.

Turning to MSQAEADKAAEEVKHLKTKPADEEMLFIYSHYKQATVGDINTERPGMLDFKGKAKWDAWNELKGTSKEDAMKAYIDKVEELKKKYGI [F6A], the “ddG of mutation (higher = less stable)” value came out at 2.63 kcal/mol, the denaturant m value is 3.51 kcal/mol/M and the unfolding free energy is 5.45 kcal/mol.

On to MSQAEFDKAAEEAKHLKTKPADEEMLFIYSHYKQATVGDINTERPGMLDFKGKAKWDAWNELKGTSKEDAMKAYIDKVEELKKKYGI [V13A], for which the “ddG of mutation (higher = less stable)” value is 1.5 kcal/mol, the denaturant m value was found to be 3.47 kcal/mol/M and the unfolding free energy is 6.58 kcal/mol.

Turning to MSQAEFDKAAEEVKHLKTKPADEEMLFIYSHYKQATVGDINTERPGMLDFKGKAKWDAWNELKGTSKEDAMKAFIDKVEELKKKYGI [Y74F], the “ddG of mutation (higher = less stable)” value is -0.03 kcal/mol, the denaturant m value worked out at 3.31 kcal/mol/M and the unfolding free energy was determined as 8.11 kcal/mol.

Turning to MSQAEFDKAAEEVKHLKTKPADEEMLFIYSHYKQATVGDINTERPGMLDFKGKAMWDAWNELKGTSKEDAMKAYIDKVEELKKKYGI [K55M], the “ddG of mutation (higher = less stable)” value was 0.22 kcal/mol, the denaturant m value came out at 3.33 kcal/mol/M and the unfolding free energy came to 7.86 kcal/mol.

With MSQAEFDKAAEEVKHLKTKPADEEMLFIYSHYKQATVGDINTERPGMLDFKGKAAWDAWNELKGTSKEDAMKAYIDKVEELKKKYGI [K55A], the “ddG of mutation (higher = less stable)” value was 1.41 kcal/mol, the denaturant m value is 3.15 kcal/mol/M and the unfolding free energy is 6.67 kcal/mol.

In the case of MSQAEFDKAAEEVKHLKTKPADEEMLAIYSHYKQATVGDINTERPGMLDFKGKAKWDAWNELKGTSKEDAMKAYIDKVEELKKKYGI [F27A], the “ddG of mutation (higher = less stable)” value was determined as 1.53 kcal/mol, the denaturant m value is 3.8 kcal/mol/M and the unfolding free energy was found to be 6.55 kcal/mol.
